Consider three molecules from patent publication US20120093830A1 (published 2012).

Where a chain is given by its changes, count along the chain named. Several values for one entry are separate records, joined by “and”; a condition that tells them apart may be missing. Equal values may be shown once.

Assay [1] has as its target T1, human IL-13 (human, UniProt P35225 35-146). Kind of assay: cell-based or functional assay.
The next assay has as its target cynomolgus IL-13 (cynomolgus, UniProt Q0PW92 21-132). Kind of assay: cell-based or functional assay.
The target of assay [2] is T1, human IL-13. Kind of assay: IL-13 sandwich ELISA (IL-13 binding to the capture antibody inhibited); block 4; sample #16 (2.6 mg/mL in PBS), aerosolised material after LC+ jet nebuliser. How it is done:
(§1) The plate was then incubated with TMB substrate (KPL, Gaithersburg, USA), and the reaction was stopped by the addition of HCl and the absorbance read at 450 nm.
(§2) Nebulisation was performed for approximately 3 minutes. 100 uL of protein samples (diluted to 1 mg/mL) were injected onto the SEC (TSKgel G2000SWXL, Tosoh Biosciences, Germany) column. The protein separation on SEC was performed at 0.5 mL/min for 45 minutes. PBS (phosphate buffered saline)+10% EtOH was used as mobile phase. The detection of eluting proteinaceous material was carried by on-line detection by UV (Abs 280 nm & 215 nm). […] The optimum MMAD is 3 μm and for deep lung delivery the desirable respirable fraction is the highest percentage of particles <5 μm. The LC+ (Pari) Jet nebuliser gives the better MMAD: MMAD values are lower when the buffer contains PEG; MMAD decreases as protein concentration increases.
On the technique in general: In an ELISA, binding on a coated surface is turned into a signal by an enzyme label.

The target of assay [3] is T1, human IL-13. Kind of assay: IL-13 sandwich ELISA: dAb dilution series mixed with IL-13, binding of IL-13 to the coating (capture) antibody detected; block 1 of the table, sample not nebulised. Here is the method: as §1, §2
Assay [4] deals with T1, human IL-13. Kind of assay: IL-13 sandwich ELISA: dAb dilution series mixed with IL-13, binding of IL-13 to the coating (capture) antibody detected; block 2 of the table, sample not nebulised. Here is the method: as §1, §2
The target of assay [5] is T1, human IL-13. Kind of assay: IL-13 sandwich ELISA: dAb dilution series mixed with IL-13, binding of IL-13 to the coating (capture) antibody detected; block 3 of the table, sample not nebulised. Here is the method:
as §1, §2

Assay [6] has as its target T1, human IL-13. Description: IL-13 sandwich ELISA: dAb dilution series mixed with IL-13, binding of IL-13 to the coating (capture) antibody detected; block 4 of the table, sample not nebulised. How it is done: as §1, §2
Assay [7] addresses T1, human IL-13. Description: IL-13 sandwich ELISA (IL-13 binding to the capture antibody inhibited); block 4; sample #16 (2.6 mg/mL in PBS), material remaining in the cup after LC+ jet nebuliser. How it is done:
as §1, §2

Assay [8] deals with T1, human IL-13. Description: IL-13 sandwich ELISA (IL-13 binding to the capture antibody inhibited); block 4; sample #16 (2.6 mg/mL in PBS), aerosolised material after E-flow vibrating mesh nebuliser. Here is the method:
as §1, §2

The target in assay [9] is T1, human IL-13. Description: IL-13 sandwich ELISA (IL-13 binding to the capture antibody inhibited); block 3; sample #16 (2.6 mg/mL in PBS), material remaining in the cup after E-flow vibrating mesh nebuliser. How it is done: as §1, §2
In assay [10] the target is T1, human IL-13. Description: IL-13 sandwich ELISA (IL-13 binding to the capture antibody inhibited); block 2; sample #14 (2.3 mg/ml, 25 mM sodium phosphate pH 7.5, 7% PEG1000, 1.2% sucrose), aerosolised material after LC+ jet nebuliser. Here is the method:
as §1, §2

Assay [11] addresses T1, human IL-13. Description: IL-13 sandwich ELISA (IL-13 binding to the capture antibody inhibited); block 3; sample #15 (4.7 mg/mL, 25 mM sodium phosphate pH 7.5, 7% PEG1000, 1.2% sucrose), aerosolised material after LC+ jet nebuliser. Here is the method: as §1, §2
In assay [12] the target is T1, human IL-13. Description: IL-13 sandwich ELISA (IL-13 binding to the capture antibody inhibited); block 1; sample #14 (2.3 mg/ml, 25 mM sodium phosphate pH 7.5, 7% PEG1000, 1.2% sucrose), material remaining in the cup after LC+ jet nebuliser. How it is done: as §1, §2
Assay [13] concerns the target T1, human IL-13. Description: IL-13 sandwich ELISA (IL-13 binding to the capture antibody inhibited); block 3; sample #15 (4.7 mg/mL, 25 mM sodium phosphate pH 7.5, 7% PEG1000, 1.2% sucrose), material remaining in the cup after LC+ jet nebuliser. How it is done: as §1, §2
For assay [14], the target named is T1, human IL-13. Description: IL-13 sandwich ELISA (IL-13 binding to the capture antibody inhibited); block 1; sample #14 (2.3 mg/ml, 25 mM sodium phosphate pH 7.5, 7% PEG1000, 1.2% sucrose), aerosolised material after E-flow vibrating mesh nebuliser. Here is the method:
as §1, §2

The target in assay [15] is T1, human IL-13. Kind of assay: IL-13 sandwich ELISA (IL-13 binding to the capture antibody inhibited); block 2; sample #15 (4.7 mg/mL, 25 mM sodium phosphate pH 7.5, 7% PEG1000, 1.2% sucrose), aerosolised material after E-flow vibrating mesh nebuliser. How it is done:
as §1, §2

Assay [16] concerns the target T1, human IL-13. Kind of assay: IL-13 sandwich ELISA (IL-13 binding to the capture antibody inhibited); block 2; sample #15 (4.7 mg/mL, 25 mM sodium phosphate pH 7.5, 7% PEG1000, 1.2% sucrose), material remaining in the cup after E-flow vibrating mesh nebuliser. Here is the method: as §1, §2
For assay [17], the target named is T1, human IL-13. Kind of assay: IL-13 sandwich ELISA: dAb dilution series mixed with IL-13, binding of IL-13 to the coating (capture) antibody detected; block 1 of the table, standard.
In assay [18] the target is T1, human IL-13. Description: IL-13 sandwich ELISA: dAb dilution series mixed with IL-13, binding of IL-13 to the coating (capture) antibody detected; block 2 of the table, standard.
For assay [19], the target named is T1, human IL-13. Kind of assay: IL-13 sandwich ELISA: dAb dilution series mixed with IL-13, binding of IL-13 to the coating (capture) antibody detected; block 3 of the table, standard.
Assay [20] has as its target T1, human IL-13. Description: IL-13 sandwich ELISA: dAb dilution series mixed with IL-13, binding of IL-13 to the coating (capture) antibody detected; block 4 of the table, standard.

Chain of cynomolgus IL-13 (Q0PW92 entry or part of it): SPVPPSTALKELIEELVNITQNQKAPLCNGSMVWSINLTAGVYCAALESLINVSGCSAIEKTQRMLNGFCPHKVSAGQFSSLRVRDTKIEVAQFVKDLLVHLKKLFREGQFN
T1 sequence (P35225 35-146 limits assumed): as the sequence (Q0PW92 entry or part of it) above, with S1G, K10R, V42M, N67S, R83H, V100L counted along it

B1: DOM10-53-474 (single domain antibody (dAb), V domains shown)
VH: GVQLLESGGGLVQPGGSLRLSCAASGFTFAWYDMGWVRQAPGKGLEWVSSIDWHGEVTYYADSVKGRFTISRDNSKNTLYLQMNSLRAEDTAVYYCATAEDEPGYDYWGQGTLVTVSS
notes: Soluble anti-IL-13 domain antibody monomer (immunoglobulin single variable domain); also called anti-IL-13 dAb
Usually IC50 stands for the point on the concentration scale where inhibition reaches its midpoint. Lower therefore signals inhibition by little substance. For B1, in the assay with human IL-13 [1], the “EC50, FIG. 1A: inhibition of human IL-13 (3 ng/ml) stimulated alkaline phosphatase production in HEK STAT6 cells” value worked out at 0.72 nM. Besides, the “EC50, FIG. 1B: inhibition of cynomolgus IL-13 (3 ng/ml) stimulated alkaline phosphatase production in HEK STAT6 cells” value in the assay with cynomolgus IL-13 is 10.8 nM. Moreover, the IC50 in the assay with human IL-13 [2] turned out to be 0.023 nM; with human IL-13 [3] it was 0.0458 nM; with human IL-13 [4] it was 0.0356 nM; in the assay with human IL-13 [5], 0.0289 nM; with human IL-13 [6], 0.0269 nM; with human IL-13 [7], 0.0339 nM. Moreover, the IC50 with human IL-13 [8] came to 0.0351 nM; with human IL-13 [9], 0.0224 nM; with human IL-13 [10], 0.0348 nM; with human IL-13 [11], 0.0149 nM; in the assay with human IL-13 [12], 0.0317 nM; in the assay with human IL-13 [13], 0.0129 nM. The figures for the 50% inhibitory concentration (IC50) with human IL-13 [14], in the assay with human IL-13 [15] and in the assay with human IL-13 [16] were 0.0322 nM, 0.0185 nM and 0.0214 nM, respectively.

B2: DOM10-53-344 (Std) (single domain antibody (dAb), V domains shown)
VH: B1 VH with T28I
B2: the IC50 with human IL-13 [17] was determined as 0.0716 nM; with human IL-13 [18], 0.125 nM; in the assay with human IL-13 [19], 0.0455 nM; with human IL-13 [20], 0.0671 nM.

B3: DOM10-275-78 (single domain antibody (dAb), V domains shown)
VH: EVQLLESGGGLVQPGGSLRLSCVASGFTFDVAEMDWVRQAPGKGLEWVSTISPSRRGTYYADSVKGRFTISRDNSKNTLYLQMNSLRAEDTAVYYCAKAYTGRSLWGPGTLVTVSS
For B3, the “EC50, FIG. 1A: inhibition of human IL-13 (3 ng/ml) stimulated alkaline phosphatase production in HEK STAT6 cells” value with human IL-13 [1] is 2.42 nM and 2.65 nM. In addition, the “EC50, FIG. 1B: inhibition of cynomolgus IL-13 (3 ng/ml) stimulated alkaline phosphatase production in HEK STAT6 cells” value with cynomolgus IL-13 is 1.37 nM.
